According to IntAct's records for PubMed 29039417:

B1: BBSome complex member BBS5 (Homo sapiens), Q8N3I7 (parent)
chain: MSVLDALWEDRDVRFDLSAQQMKTRPGEVLIDCLDSIEDTKGNNGDRGRLLVTNLRILWHSLALSRVNVSVGYNCILNITTRTANSKLRGQTEALYILTKCNSTRFEFIFTNLVPGSPRLFTSVMAVHRAYETSKMYRDFKLRSALIQNKQLRLLPQEHVYDKINGVWNLSSDQGNLGTFFITNVRIVWHANMNDSFNVSIPYLQIRSIKIRDSKFGLALVIESSQQSGGYVLGFKIDPVEKLQESVKEINSLHKVYSASPIFGVDYEMEEKPQPLEALTVEQIQDDVEIDSDGHTDAFVAYFADGNKQQDREPVFSEELGLAIEKLKDGFTLQGLWEVMS
partner: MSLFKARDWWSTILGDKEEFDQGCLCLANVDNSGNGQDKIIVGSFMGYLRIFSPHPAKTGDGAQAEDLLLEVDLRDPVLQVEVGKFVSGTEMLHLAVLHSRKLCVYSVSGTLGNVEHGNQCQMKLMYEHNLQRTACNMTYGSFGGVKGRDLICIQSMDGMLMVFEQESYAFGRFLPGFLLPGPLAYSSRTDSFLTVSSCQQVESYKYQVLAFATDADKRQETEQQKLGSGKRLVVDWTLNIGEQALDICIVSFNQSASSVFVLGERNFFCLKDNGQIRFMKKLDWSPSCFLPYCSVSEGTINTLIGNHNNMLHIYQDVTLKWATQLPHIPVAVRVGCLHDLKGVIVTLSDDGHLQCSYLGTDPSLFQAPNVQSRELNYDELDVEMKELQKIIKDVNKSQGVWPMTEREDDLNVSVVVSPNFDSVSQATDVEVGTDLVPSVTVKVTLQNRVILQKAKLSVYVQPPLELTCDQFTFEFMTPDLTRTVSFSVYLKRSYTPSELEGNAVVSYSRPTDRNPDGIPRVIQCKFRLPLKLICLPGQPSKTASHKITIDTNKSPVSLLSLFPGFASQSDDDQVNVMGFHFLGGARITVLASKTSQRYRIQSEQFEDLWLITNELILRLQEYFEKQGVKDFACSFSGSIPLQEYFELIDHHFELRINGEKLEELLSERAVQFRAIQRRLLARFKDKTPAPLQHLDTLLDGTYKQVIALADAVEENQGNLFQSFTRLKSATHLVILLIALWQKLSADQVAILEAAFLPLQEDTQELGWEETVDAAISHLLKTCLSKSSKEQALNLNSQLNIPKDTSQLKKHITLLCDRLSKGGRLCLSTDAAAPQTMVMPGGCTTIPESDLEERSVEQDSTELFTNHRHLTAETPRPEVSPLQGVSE

Variants of: B1
Conditions: with pthb1_human BBS9, Q3SYG4

| effect of a mutation on the interaction | Variant |
| --- | --- |
| with no effect | K150A |
| with no effect | K150E |
| with no effect | Q151A |
| with no effect | Q151E |
| with no effect | Q151K |
| with no effect | L152A |
| with no effect | L152E |
| with no effect | L152K |
| with no effect | R153A |
| with no effect | R153E |
| with no effect | R153K |
| with no effect | L154A |
| with no effect | L154E |
| with no effect | L154K |
| with no effect | L155A |
| with no effect | L155E |
| with no effect | L155K |
| with no effect | P156A |
| with no effect | P156E |
| with no effect | P156K |
| with no effect | Q157A |
| with no effect | Q157E |
| with no effect | Q157K |
| with no effect | E158A |

| effect of a mutation on the interaction | Variant |
| --- | --- |
| with no effect | E158K |
| with no effect | H159A |
| with no effect | H159E |
| with no effect | H159K |
| with no effect | V160A |
| with no effect | V160E |
| with no effect | V160K |
| with no effect | Y161A |
| with no effect | Y161E |
| with no effect | Y161K |
| with no effect | D162A |
| with no effect | D162E |
| with no effect | D162K |
| with no effect | K163A |
| with no effect | K163E |
| with no effect | I164A |
| with no effect | I164E |
| with no effect | I164K |
| with no effect | N165A |
| with no effect | N165E |
| with no effect | N165K |
| with no effect | G166A |
| with no effect | G166E |
| with no effect | G166K |

| effect of a mutation on the interaction | Variant |
| --- | --- |
| with no effect | V167A |
| with no effect | V167E |
| with no effect | V167K |
| with no effect | W168A |
| with no effect | W168E |
| with no effect | W168K |
| with no effect | N169A |
| with no effect | N169E |
| with no effect | N169K |
| with no effect | L170A |
| with no effect | L170E |
| with no effect | L170K |
| with no effect | S171A |
| with no effect | S171E |
| with no effect | S171K |
| with no effect | S172A |
| with no effect | S172E |
| with no effect | S172K |
| with no effect | D173A |
| with no effect | D173E |
| with no effect | D173K |
| with no effect | Q174A |
| with no effect | Q174E |
| with no effect | Q174K |

| effect of a mutation on the interaction | Variant |
| --- | --- |
| with no effect | G175A |
| with no effect | G175E |
| with no effect | G175K |
| with no effect | N176A |
| with no effect | N176E |
| with no effect | N176K |
| with no effect | L177A |
| with no effect | L177E |
| with no effect | L177K |
| with no effect | G178A |
| disrupting interaction strength | G178E |
| with no effect | G178K |
| disrupting interaction strength | G178R |
| with no effect | T179A |
| with no effect | T179E |
| with no effect | T179K |
| with no effect | F180A |
| with no effect | F180E |
| disrupting interaction strength | F180K |
| with no effect | F181A |
| with no effect | F181E |
